Data on 13 molecules can be found in patent US20260256915A1 (published 2026).

This assay concerns the target T1, PRAME peptide on HLA-A*02:01 (human).
T1 peptide: SLLQHLIGL
Put plainly: multimer staining.

B1: nwTCR-2720 (TCR, V domains shown)
Valpha: SQQGEEDPQALSIQEGENATMNCSYKTSINNLQWYRQNSGRGLVHLILIRSNEREKHSGRLRVTLDTSKKSSSLLITASRAADTASYFCATDLSGAGSYQLTFGKGTKLSVIP
Vbeta: EAQVTQNPRYLITVTGKKLTVTCSQNMNHEYMSWYRQDPGLGLRQIYYSMNVEVTDKGDVPEGYKVSRKEKRNFPLILESPSPNQTSLYFCASSLGTGFGELFFGEGSRLTVL
On to B1, for which the binding result is “recognises”.

B2: nwTCR-2970 (TCR, V domains shown)
Valpha: QQPVQSPQAVILREGEDAVINCSSSKALYSVHWYRQKHGEAPVFLMILLKGGEQKGHDKISASFNEKKQQSSLYLTASQLSYSGTYFCGTEFRNDYKLSFGAGTTVTVRA
Vbeta: EAQVTQNPRYLITVTGKKLTVTCSQNMNHEYMSWYRQDPGLGLRQIYYSMNVEVTDKGDVPEGYKVSRKEKRNFPLILESPSPNQTSLYFCASSPGTGGYGYTFGSGTRLTVV
Regarding B2, the binding result is on record as “recognises”.

B3: nwTCR-3271 (TCR, V domains shown)
Valpha: DQQVKQNSPSLSVQEGRISILNCDYTNSMFDYFLWYKKYPAEGPTFLISISSIKDKNEDGRFTVFLNKSAKHLSLHIVPSQPGDSAVYFCAAKPDKLIFGTGTRLQVFP
Vbeta: SAVISQKPSRDICQRGTSLTIQCQVDSQVTMMFWYRQQPGQSLTLIATANQGSEATYESGFVIDKFPISRPNLTFSTLTVSNMSPEDSSIYLCSVWGAGLAIYNEQFFGPGTRLTVL
Regarding B3, the binding result is “recognises”.

B4: nwTCR-3173 (TCR, V domains shown)
Valpha: SQQGEEDPQALSIQEGENATMNCSYKTSINNLQWYRQNSGRGLVHLILIRSNEREKHSGRLRVTLDTSKKSSSLLITASRAADTASYFCATYANDYKLSFGAGTTVTVRA
Vbeta: EAQVTQNPRYLITVTGKKLTVTCSQNMNHEYMSWYRQDPGLGLRQIYYSMNVEVTDKGDVPEGYKVSRKEKRNFPLILESPSPNQTSLYFCASSAGTGGFVGYTFGSGTRLTVV
As for B4, the binding result is listed as “recognises”.

B5: nwTCR-2916 (TCR, V domains shown)
Valpha: GQQLNQSPQSMFIQEGEDVSMNCTSSSIFNTWLWYKQDPGEGPVLLIALYKAGELTSNGRLTAQFGITRKDSFLNISASIPSDVGIYFCAGQDDGGSQGNLIFGKGTKLSVKP
Vbeta: DSGVTQTPKHLITATGQRVTLRCSPRSGDLSVYWYQQSLDQGLQFLIQYYNGEERAKGNILERFSAQQFPDLHSELNLSSLELGDSALYFCASSPWTSGGDGELFFGEGSRLTVL
Regarding B5, the binding result is “recognises”.

B6: nwTCR-3272 (TCR, V domains shown)
Valpha: QKEVEQNSGPLSVPEGAIASLNCTYSDRGSQSFFWYRQYSGKSPELIMSIYSNGDKEDGRFTAQLNKASQYVSLLIRDSQPSDSATYLCAVPSGNMLTFGGGTRLMVKP
Vbeta: DVKVTQSSRYLVKRTGEKVFLECVQDMDHENMFWYRQDPGLGLRLIYFSYDVKMKEKGDIPEGYSVSREKKERFSLILESASTNQTSMYLCASSSATSGSGEQYFGPGTRLTVT
Consider B6, for which the binding result is “recognises”.

B7: nwTCR-2793 (TCR, V domains shown)
Valpha: QKEVEQNSGPLSVPEGAIASLNCTYSDRVSQSFFWYRQYSGKSPELIMSIYSNGDKEDGRFTAQLNKASQYVSLLIRDSQPSDSATYLCAVVSSNDYKLSFGAGTTVTVRA
Vbeta: EAQVTQNPRYLITVTGKKLTVTCSQNMNHEYMSWYRQDPGLGLRQIYYSMNVEVTDKGDVPEGYKVSRKEKRNFPLILESPSPNQTSLYFCASSPGTIGELFFGEGSRLTVL
On to B7, for which the binding result is listed as “recognises”.

B8: nwTCR-2915 (TCR, V domains shown)
Valpha: GESVGLHLPTLSVQEGDNSIINCAYSNSASDYFIWYKQESGKGPQFIIDIRSNMDKRQGQRVTVLLNKTVKHLSLQIAATQPGDSAVYFCAESYGQKLLFARGTMLKVDL
Vbeta: EAQVTQNPRYLITVTGKKLTVTCSQNMNHEYMSWYRQDPGLGLRQIYYSMNVEVTDKGDVPEGYKVSRKEKRNFPLILESPSPNQTSLYFCASSFWSAGELFFGEGSRLTVL
Consider B8, for which the binding result is on record as “recognises”.

B9: nwTCR-3095 (TCR, V domains shown)
Valpha: DQQVKQNSPSLSVQEGRISILNCDYTNSMFDYFLWYKKYPAEGPTFLISISSIKDKNEDGRFTVFLNKSAKHLSLHIVPSQPGDSAVYFCAAFASDSNYQLIWGAGTKLIIKP
Vbeta: DTAVSQTPKYLVTQMGNDKSIKCEQNLGHDTMYWYKQDSKKFLKIMFSYNNKELIINETVPNRFSPKSPDKAHLNLHINSLELGDSAVYFCASSPWTSGGNGELFFGEGSRLTVL
For the molecule B9, the binding result is reported as “recognises”.

B10: nwTCR-3274 (TCR, V domains shown)
Valpha: QKEVEQNSGPLSVPEGAIASLNCTYSDRGSQSFFWYRQYSGKSPELIMSIYSNGDKEDGRFTAQLNKASQYVSLLIRDSQPSDSATYLCAVVSGGYNKLIFGAGTRLAVHP
Vbeta: EPEVTQTPSHQVTQMGQEVILRCVPISNHLYFYWYRQILGQKVEFLVSFYNNEISEKSEIFDDQFSVERPDGSNFTLKIRSTKLEDSAMYFCASSEGWGGTEAFFGQGTRLTVV
B10: the binding result is listed as “recognises”.

B11: nwTCR-3273 (TCR, V domains shown)
Valpha: SQELEQSPQSLIVQEGKNLTINCTSSKTLYGLYWYKQKYGEGLIFLMMLQKGGEEKSHEKITAKLDEKKQQSSLHITASQPSHAGIYLCGAVPINDYKLSFGAGTTVTVRA
Vbeta: EAQVTQNPRYLITVTGKKLTVTCSQNMNHEYMSWYRQDPGLGLRQIYYSMNVEVTDKGDVPEGYKVSRKEKRNFPLILESPSPNQTSLYFCASSIDSGSSYNEQFFGPGTRLTVL
On to B11, for which the binding result is on record as “recognises”.

B12: nwTCR-3028 (TCR, V domains shown)
Valpha: SQQGEEDPQALSIQEGENATMNCSYKTSINNLQWYRQNSGRGLVHLILIRSNEREKHSGRLRVTLDTSKKSSSLLITASRAADTASYFCATDVKSSYKLIFGSGTRLLVRP
Vbeta: AAGVIQSPRHLIKEKRETATLKCYPIPRHDTVYWYQQGPGQDPQFLISFYEKMQSDKGSIPDRFSAQQFSDYHSELNMSSLELGDSALYFCASSLGLLGNEQFFGPGTRLTVL
Consider B12, for which the binding result is recorded as “recognises”.

B13: nwTCR-3125 (TCR, V domains shown)
Valpha: QKEVEQNSGPLSVPEGAIASLNCTYSDRVSQSFFWYRQYSGKSPELIMSIYSNGDKEDGRFTAQLNKASQYVSLLIRDSQPSDSATYLCALVSGTYKYIFGTGTRLKVLA
Vbeta: DTAVSQTPKYLVTQMGNDKSIKCEQNLGHDTMYWYKQDSKKFLKIMFSYNNKELIINETVPNRFSPKSPDKAHLNLHINSLELGDSAVYFCASSPGLAYEQYFGPGTRLTVT
Take B13: the binding result is “recognises”.
